From patent US8252737B2, “Antimicrobial peptides and methods of use” (priority 2004, dated 2012)
In brackets after ≈: the same amount, converted by molar mass. Square brackets hold non-standard residues; d marks the D form. Ends that are not written are not given here.

Assays:
[1] = Circular dichroism spectroscopy of helical structure (benign buffer and 50% TFE); format: physicochemical; conditions: 25° C.; for % helix 50% TFE / % helix Benign: relative to NAL in 50% TFE; for [θ]222 Benign: benign buffer (100 mM KCl, 50 mM PO4 pH 7.0); for [θ]222 50% TFE: benign buffer diluted 1:1 (v/v) with TFE; for % helix Benign: benign buffer
Method: To determine the secondary structure of peptides in different environments, circular dichroism (CD) spectra of the peptide analogs were measured under physiologically related pH and ionic strength (100 mM KCl, 50 mM aq. PO4, pH 7 referred to as benign conditions) and also in 50% TFE to mimic the hydrophobic environment of the membrane. […] On the non-polar face, the native L-Val residue was critical in maintaining α-helical structure. […] Even the substitution with L-Ala, which is known to have the highest α-helical propensity of all 20 amino acids (34), could not stabilize the α-helical structure. […] It is noteworthy that, on the non-polar face, the magnitude of the helical content of L-peptides in benign buffer was related to the hydrophobicity of the substituting amino acids, i.e., NLL>NVL>NAL>NSL, NKL, again showing the importance of hydrophobicity on the non-polar face in maintaining the α-helical structure. […] However, whether L- or D-substitutions were made on the non-polar face, high helical structure could be induced by the hydrophobic environment of 50% TFE, a mimic of the membrane's hydrophobicity and α-helix inducing ability (Table 3).
To determine the secondary structure of the D-enantiomeric peptides in different environments, CD spectra of the peptide analogs were measured under benign conditions (100 mM KCl, 50 mM KH2PO4/K2HPO4, pH 7.4, referred to as KP buffer) and also in 50% trifluoroethanol (TFE) to mimic the hydrophobic environment of the membrane. […] However, in the presence of 50% TFE, all three L-peptides were fully folded α-helical structures with similar ellipticities and helicity (Table 4).
Characterization of Helical Structure—The mean residue molar ellipticities of peptides were determined by circular dichroism (CD) spectroscopy, using a Jasco J-720 spectropolarimeter (Jasco, Easton, Md.), at 25° C. under benign conditions (50 mM KH2PO4/K2HPO4/100 mM KCl, pH 7), as well as in the presence of an α-helix inducing solvent, 2,2,2-trifluoroethanol (TFE) (50 mM KH2PO4/K2HPO4/100 mM KCl, pH 7 buffer/50% TFE). A 10-fold dilution of a ˜500 μM stock solution of the peptide analogs was loaded into a 0.02 cm fused silica cell and its ellipticity scanned from 190 to 250 nm. The values of molar ellipticities of the peptide analogs at a wavelength of 222 nm were used to estimate the relative α-helicity of the peptides.

[2] = RP-HPLC temperature profiling (hydrophobicity and self-association/dimerization parameter PA); format: physicochemical; conditions: for tR (min) 5° C.: RP-HPLC retention time at 5° C. during temperature profiling (measure of hydrophobicity); for tR (min) 80° C.: RP-HPLC retention time at 80° C. during temperature profiling; for overall hydrophobicity change relative to PVL: RP-HPLC retention time difference at 80° C.; for overall hydrophobicity change relative to PVL / ΔtR (X-PSL) (min) 5° C. / ΔtR (X-PSL) (min) 80° C.: polar face substitutions; for tR (min) Max: maximal RP-HPLC retention time during temperature profiling 5-80° C.; for PA (min) association parameter: maximal retention time difference relative to control peptide C within 5-80° C.; for ΔtR (X-PSL) (min) 5° C.: retention time difference relative to native peptide V681 (PSL) at 5° C.; for ΔtR (X-PSL) (min) 80° C.: retention time difference relative to native peptide V681 (PSL) at 80° C.
Method: The retention time data for the peptides is shown in Table 5 which records retention times at 5° C., the maximal retention times and retention times at 80° C. during the temperature profiling. Temperatures of 5° C. and 80° C. were the lower and upper temperature limits of temperature profiling in RP-HPLC, representing dimerization of the peptides at 5° C. and the monomerization of peptides at 80° C. due to dissociation of the dimers. The maximal retention times represent the threshold points at which peptides transform from dimeric to monomeric form. Among the non-polar face substituted peptides, peptides with more hydrophobic substitutions (whether L- or D-amino acid substitutions) were more retained during RP-HPLC, i.e., peptides were eluted in the order of Lys, Gly, Ser, Ala, Val and Leu (Table 5). In addition, on the non-polar face, the L-analogs were always more retained than the D-diastereomers (Table 5, FIG. 5). […] In contrast, on the polar face, the elution order of peptides was not correlated with the order of amino acid side-chain hydrophobicity, e.g., PAL and PSL were more retained than PVL (Table 5); PSD was the most retained peptide among the D-amino acid substituted analogs on the polar face (Table 5).
The ability of the D-peptides to self-associate was determined by RP-HPLC temperature profiling. […] As expected, L- and D-peptide enantiomers were totally inseparable over this temperature range, since each pair of peptides is identical in sequence and must adopt identical conformations on interacting with the reversed-phase matrix, whether in an all-L- or all-D-conformation. RP-HPLC retention behavior has been frequently utilized to represent overall peptide hydrophobicity (53, 26). In the present study, the hydrophobicity of the three peptide pairs is in the order V681/D-V681>[…]>NKL/D-NKD (Table 4), which agrees with the change in hydrophobicity of the substitutions at position 13 in order of the most hydrophobic to the least hydrophobic amino acid residue (Val in V681>Ala in NA>Lys in NK) (54). […] For example, the retention times of peptides V681/D-V681 increase with increasing temperature (up to ˜30° C.) followed by a retention time decrease with a further temperature increase. […] Since peptide C is a monomeric random coil peptide in both aqueous and hydrophobic media, its retention behavior over the temperature range 5° C. to 80° C. represents only general temperature effects on peptide retention behavior, i.e., a linear decrease in peptide retention time with increasing temperature due to greater solute diffusivity and enhanced mass transfer between the stationary and mobile phases at higher temperatures (55). Thus, after normalization to the retention times of peptide C, the retention behavior of the peptides represents only peptide self-association ability. Note that the higher the PA value, the greater the self-association ability. […] From Table 4, it is also clear that the peptide retention times at 80° C. are dramatically lower than those at 5° C.
Elution times during RP-HPLC have frequently been utilized as a measure of relative hydrophobicity of peptide analogs (26, 31). In the current study, peptide analogs differed only by a single amino acid substitution on either the non-polar face or the polar face of V681; thus, the retention time data in Table 5 can be considered to reflect the hydrophobicity difference between peptide analogs. In order to more easily visualize the variation in hydrophobicity of the peptide analogs, the retention time data in Table 5 were normalized relative to that of the native peptide V681 at 5° C. and 80° C., respectively. Hydrophobicity relative to the native peptide V681 indicates an increase or decrease of the apparent peptide hydrophobicity with the different amino acid substitutions on the polar or non-polar face. […]

[3] = system: human erythrocytes; assay: Hemolytic activity (MHC), Protocol B, 18 hours; conditions: maximal peptide concentration showing no hemolysis after 18 hours, hRBC, Table 14
Method: In order to evaluate the biological activities of the D-enantiomeric peptides, namely D-NAL and D-NKD, the hemolytic activity of the peptides against human erythrocytes was determined as the maximal peptide concentration that produces no hemolysis after 18 hours of incubation at 37° C.
Measurement of Hemolytic Activity—Protocol A: Peptide samples were added to 1% human erythrocytes in phosphate buffered saline (0.08M NaCl; 0.043M Na2PO4; 0.011M KH2PO4) and reactions were incubated at 37° C. for 12 hours in microtiter plates. Peptide samples were diluted 2 fold in order to determine the concentration that produced no hemolysis. […] Hemoglobin release was determined spectrophotometrically at 562 nm. The hemolytic titer was the highest 2-fold dilution of the peptide that still caused release of hemoglobin from erythrocytes. The control for no release of hemoglobin was a sample of 1% erythrocytes without any peptide added. […] Peptide samples were diluted 2 fold in order to determine the concentration that produced no hemolysis. […] Hemoglobin release was determined spectrophotometrically at 570 nm. The hemolytic titer was the highest 2-fold dilution of the peptide that still caused release of hemoglobin from erythrocytes. The control for no release of hemoglobin was a sample of 1% erythrocytes without any peptide added.

[4] = system: Pseudomonas aeruginosa strains
Method: Pseudomonas aeruginosa strains used in this study are a diverse group of clinical isolates from different places in the world. […] The geometric mean MIC values from six Pseudomonas aeruginosa strains were calculated to provide an overall evaluation of antimicrobial activity of these peptides against Pseudomonas aeruginosa. Fold improvement was calculated by comparing the geometric mean MIC value of each peptide to that of the parent peptide V681.
Measurement of Antimicrobial Activity—Minimal inhibitory concentrations (MICs) were determined using a standard microtiter dilution method in LB (Luria-Bertani) no-salt medium (10 g of tryptone and 5 g of yeast extract per liter). Briefly, cells were grown overnight at 37° C. in LB and diluted in the same medium. […] Plates were incubated at 37° C. for 24 hours and MICs determined as the lowest peptide concentration that inhibited growth. Alternatively, minimal inhibitory concentrations were determined using a standard microtiter dilution method in a Mueller-Hinton (MH) medium. Briefly, cells were grown overnight at 37° C. in MH broth and diluted in the same medium. […] Plates were incubated at 37° C. for 24 hours and MICs determined as the lowest peptide concentration that inhibited growth. However, for MIC determination of Pseudomonas aeruginosa clinical isolates, brain heart infusion (BH1) medium was used instead of MH broth. In addition, the bacteria were diluted to a final inoculum of 1×10^6 colony-forming units/ml.
For the Leu-substituted peptides, the hemolytic activity against human erythrocytes was determined as the maximal peptide concentration that produces no hemolysis after 18 hours of incubation at 37° C. Antimicrobial activity of the peptides was determined on a diverse group of Pseudomonas aeruginosa clinical isolates. […] The geometric mean MIC values from six Pseudomonas strains in Table 14 were calculated to provide an overall evaluation of antimicrobial activity of the peptides with different hydrophobicities.

Row | Compound | % helix 50% TFE [1] | [θ]222 Benign [1] | [θ]222 50% TFE [1] | % helix Benign [1] | tR (min) 5° C. [2] | tR (min) 80° C. [2] | overall hydrophobicity change relative to PVL [2] | tR (min) Max [2] | PA (min) association parameter [2] | ΔtR (X-PSL) (min) 5° C. ([2]; relative hydrophobicity) | ΔtR (X-PSL) (min) 80° C. ([2]; relative hydrophobicity) | also measured
1 | PAL: V681 analog with L-Ala at position 11 (polar face) (KWKSFLKTFKAAVKTVLHTALKAISS) | 95% | −13,600 deg · cm^2 · dmol^−1 | −27,600 deg · cm^2 · dmol^−1 | 47% | 48.25 min | 46.63 min | +0.45 min | 50.57 min | 4.15 min | 0.15 min | 0.80 min | –
2 | NLD: V681 analog with D-Leu at position 13 (non-polar face) (KWKSFLKTFKSA[dL]KTVLHTALKAISS-NH2; not fully specified) | 89% | −7,350 deg · cm^2 · dmol^−1 | −25,750 deg · cm^2 · dmol^−1 | 25% | 45.10 min | 43.03 min | – | 46.37 min | 3.02 min | – | – | ΔtR (X-NVL) (min) 5° C. ([2]; non-polar face substitutions, retention time difference relative to native peptide V681 (NVL) at 5° C., relative hydrophobicity): -3.00 min; ΔtR (X-NVL) (min) 80° C. ([2]; non-polar face substitutions, retention time difference relative to native peptide V681 (NVL) at 80° C., relative hydrophobicity): -2.80 min
3 | CC[C@H](C)[C@H](NC(=O)[C@H](CC(C)C)NC(=O)[C@H](CCCCN)NC(=O)[C@H](CC(C)C)NC(=O)[C@H](C)NC(=O)[C@@H](NC(=O)[C@H](Cc1c[nH]cn1)NC(=O)[C@H](CC(C)C)NC(=O)[C@@H](NC(=O)[C@@H](NC(=O)[C@H](CCCCN)NC(=O)[C@H](CCCCN)NC(=O)[C@H](CC(C)C)NC(=O)[C@H](CO)NC(=O)[C@H](CCCCN)NC(=O)[C@H](Cc1ccccc1)NC(=O)[C@@H](NC(=O)[C@H](CCCCN)NC(=O)[C@H](CC(C)C)NC(=O)[C@H](Cc1ccccc1)NC(=O)[C@H](CO)NC(=O)[C@H](CCCCN)NC(=O)[C@H](Cc1c[nH]c2ccccc12)NC(=O)[C@H](CCCCN)NC(C)=O)[C@@H](C)O)[C@@H](C)O)C(C)C)[C@@H](C)O)C(=O)N[C@@H](CO)C(=O)N[C@@H](CO)C(N)=O [A12L/A23L] | – | – | – | – | – | – | – | – | – | – | – | Hemolytic activity MHC [3]: 15.6 µg/mL; MIC (μg/ml) CP 204 ([4]; Pseudomonas aeruginosa clinical isolate CP 204): 7.8 µg/mL (≈ 2.54 µM); MIC (μg/ml) M 2 ([4]; Pseudomonas aeruginosa clinical isolate M 2): 31.3 µg/mL (≈ 10.2 µM); MIC (μg/ml) PA 14 ([4]; Pseudomonas aeruginosa clinical isolate PA 14): 62.5 µg/mL (≈ 20.3 µM); MIC (μg/ml) PAK ([4]; Pseudomonas aeruginosa clinical isolate PAK): 15.6 µg/mL (≈ 5.07 µM); MIC (μg/ml) PAO 1 ([4]; Pseudomonas aeruginosa clinical isolate PAO 1): 15.6 µg/mL (≈ 5.07 µM); MIC (μg/ml) WR 5 ([4]; Pseudomonas aeruginosa clinical isolate WR 5): 250.0 µg/mL (≈ 81.3 µM); MIC (μg/ml) GM ([4]; geometric mean of the MIC values for the 6 Pseudomonas aeruginosa clinical isolates): 31.2 µg/mL (≈ 10.1 µM)
4 | PKL: V681 analog with L-Lys at position 11 (polar face) (KWKSFLKTFKKAVKTVLHTALKAISS) | 94% | −5,950 deg · cm^2 · dmol^−1 | −27,350 deg · cm^2 · dmol^−1 | 21% | 46.38 min | 43.89 min | -2.29 min | 47.90 min | 3.17 min | -1.72 min | -1.94 min | –
5 | PLL: V681 analog with L-Leu at position 11 (polar face) (KWKSFLKTFKLAVKTVLHTALKAISS) | 99% | −10,850 deg · cm^2 · dmol^−1 | −28,550 deg · cm^2 · dmol^−1 | 37% | 48.78 min | 47.51 min | – | 51.23 min | 4.33 min | 0.68 min | 1.68 min | –
